Consider three molecules from patent publication US20220119534A1 (DRAGONFLY THERAPEUTICS, published 2022).

Several values for one entry are separate records, joined by “and”; a condition that tells them apart may be missing. Identical values can stand only once.

The target in experiment [1] is T1, mFc-hNKG2D (recombinant mFc-tagged human NKG2D dimer) (human, UniProt P26718 73-216).
T1 construct: extracellular domain; Made in house; not shown: mouse Fc tag
T1 sequence (looked up): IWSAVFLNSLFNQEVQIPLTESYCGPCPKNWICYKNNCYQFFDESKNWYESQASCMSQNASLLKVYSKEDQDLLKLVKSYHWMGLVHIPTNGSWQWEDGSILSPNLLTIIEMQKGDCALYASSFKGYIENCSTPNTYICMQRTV
In words: SPR; control sample. (SPR reads the build-up and loss of mass on a sensor chip optically.)

For experiment [2], the target named is T2, Human CD16a V158 (FcγRIIIa V158) (human, UniProt P08637 17-208, biotinylated).
T2 construct: Bought recombinant receptor; also called hCD16aV; hFcγRIIIa V158
T2 sequence (P08637 17-208 F176V limits assumed): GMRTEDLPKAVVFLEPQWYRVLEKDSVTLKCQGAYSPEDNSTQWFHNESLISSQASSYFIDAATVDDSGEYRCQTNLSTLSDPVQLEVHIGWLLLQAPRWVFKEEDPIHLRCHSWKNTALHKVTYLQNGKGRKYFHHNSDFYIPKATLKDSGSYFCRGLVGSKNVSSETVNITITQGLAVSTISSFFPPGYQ
The experiment is described as follows: SPR; control sample.

The target of experiment [3] is T3, Human CLEC12A-His (recombinant, K244 WT) (human, UniProt Q5QGZ9 65-265).
T3 construct: Made in house (Dragonfly Tx); also called hCLEC12A; hCLEC12A-His; not shown: His tag
T3 sequence: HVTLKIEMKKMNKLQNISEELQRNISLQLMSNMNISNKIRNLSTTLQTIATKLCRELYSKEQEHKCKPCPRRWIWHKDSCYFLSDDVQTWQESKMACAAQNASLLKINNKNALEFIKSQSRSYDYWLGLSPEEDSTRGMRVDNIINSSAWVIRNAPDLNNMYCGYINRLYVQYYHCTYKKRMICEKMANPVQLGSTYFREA
In words: SPR, two-state fit (ka1); after pH 5.0, 40C, 2 wks.

Experiment [4] concerns the target T1, mFc-hNKG2D (recombinant mFc-tagged …). In words: SPR 37C, mFc-hNKG2D captured, 1:1 kinetic fit.
The target of experiment [5] is T3, Human CLEC12A-His (recombinant, K244 WT). In words: SPR, two-state fit; control sample.
Experiment [6] deals with T4, Human CD16a F158 (FcγRIIIa F158) (human, UniProt P08637 17-208, biotinylated).
T4 construct: Bought recombinant receptor; also called hFcγRIIIa F158
T4 sequence (P08637 17-208 limits assumed): as the sequence (P08637 17-208 F176V limits assumed) above, with V160F counted along it
In words: SPR 25C, receptor captured, steady-state fit.

For experiment [7], the target named is T3, Human CLEC12A-His (recombinant, K244 WT). The experiment is described as follows: SPR, two-state fit (kd1); after 4 wks 40C in HST pH 6.0.
In the next experiment the target is T5, Human CLEC12A-His (human, UniProt Q5QGZ9 65-265).
T5 construct: Recombinant soluble protein made in house; also called hCLEC12A-His; hCLEC12A; not shown: His tag
T5 sequence: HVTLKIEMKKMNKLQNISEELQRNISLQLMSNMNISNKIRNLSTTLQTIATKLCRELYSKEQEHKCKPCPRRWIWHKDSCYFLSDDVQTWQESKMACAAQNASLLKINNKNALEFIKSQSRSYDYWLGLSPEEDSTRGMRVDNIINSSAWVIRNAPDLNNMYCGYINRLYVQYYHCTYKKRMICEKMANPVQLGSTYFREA
The experiment is described as follows: SPR; sample after 4 weeks at 40 C in HST pH 6.0.

The target of another experiment is T6, Human CD16a V158 (human, UniProt P08637 17-208, biotinylated).
T6 construct: Bought recombinant receptor; also called hCD16a (V158); hFcγRIIIa V158
T6 sequence (P08637 17-208 F176V limits assumed): as the sequence (P08637 17-208 F176V limits assumed) above
In words: SPR; sample after 4 weeks at 40 C in HST pH 6.0.

For a further experiment, the target named is HER2. In words: SPR specificity test.
A further experiment has as its target T7, BCMA.
T7 chain: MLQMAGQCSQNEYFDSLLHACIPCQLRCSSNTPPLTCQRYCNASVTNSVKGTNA
The experiment is described as follows: SPR specificity test.

B1: AB0089 TriNKET (bispecific antibody, human IgG1, kappa)
chain: QLQLQESGPGLVKPSETLSLTCTVSGFSLTNYGLHWIRQPPGKCLEWIGVIWVGGATDYNPSLKSRVTISVDTSKNQFSLKLSSVQAADTAVYYCAKGDYGDTLDYWGQGTLVTVSSGGGGSGGGGSGGGGSGGGGSDIQMTQSPSSLSASVGDRVTITCHASQNINFWLSWYQQKPGKAPKLLIYEASNLHTGVPSRFSGSGSGTDFTLTISSLQPEDFATYYCQQSHSYPLTFGCGTKLEIKGSDKTHTCPPCPAPELLGGPSVFLFPPKPKDTLMISRTPEVTCVVVDVSHEDPEVKFNWYVDGVEVHNAKTKPREEQYNSTYRVVSVLTVLHQDWLNGKEYKCKVSNKALPAPIEKTISKAKGQPREPRVYTLPPCRDELTKNQVSLTCLVKGFYPSDIAVEWESNGQPENNYKTTPPVLVSDGSFTLYSKLTVDKSRWQQGNVFSCSVMHEALHNHYTQKSLSLSPG
heavy: EVQLVESGGGLVKPGGSLRLSCAASGFTFSSYSMNWVRQAPGKGLEWVSSISSSSSYIYYADSVKGRFTISRDNAKNSLYLQMNSLRAEDTAVYYCARGAPIGAAAGWFDPWGQGTLVTVSSASTKGPSVFPLAPSSKSTSGGTAALGCLVKDYFPEPVTVSWNSGALTSGVHTFPAVLQSSGLYSLSSVVTVPSSSLGTQTYICNVNHKPSNTKVDKKVEPKSCDKTHTCPPCPAPELLGGPSVFLFPPKPKDTLMISRTPEVTCVVVDVSHEDPEVKFNWYVDGVEVHNAKTKPREEQYNSTYRVVSVLTVLHQDWLNGKEYKCKVSNKALPAPIEKTISKAKGQPREPQVCTLPPSRDELTENQVSLTCLVKGFYPSDIAVEWESNGQPENNYKTTPPVLDSDGSFFLYSWLTVDKSRWQQGNVFSCSVMHEALHNHYTQKSLSLSPG
light: DIQMTQSPSSVSASVGDRVTITCRASQGISSWLAWYQQKPGKAPKLLIYAASSLQSGVPSRFSGSGSGTDFTLTISSLQPEDFATYYCQQGVSFPRTFGGGTKVEIKRTVAAPSVFIFPPSDEQLKSGTASVVCLLNNFYPREAKVQWKVDNALQSGNSQESVTEQDSKDSTYSLSSTLTLSKADYEKHKVYACEVTHQGLSSPVTKSFNRGEC
notes: F3' format heterodimer of three chains; human IgG1 Fc with EW-RVT and Y349C/S354C mutations; also called AB0089 Lot AB0089-002; CLEC12A TriNKET AB0089
For B1, the Kd (as a rule, the constant that tells how readily two partners part at equilibrium) in [1] is 797 nM; in experiment [2], 322 nM; in experiment [4], 872 nM and 892 nM and 880 nM; in [5], 0.7 nM; in experiment [6], 1250 nM and 1280 nM and 1300 nM. In addition, the koff (usually the rate constant with which the complex falls apart) in experiment [1] was 0.135 s⁻¹; in experiment [2], 0.0278 s⁻¹; in experiment [4] it was 0.141 s⁻¹ and 0.142 s⁻¹ and 0.146 s⁻¹; in experiment [7], 0.0424 s⁻¹. In addition, the kon (as a rule, the rate constant with which the complex forms) in [1] is 169000 M⁻¹ s⁻¹; in [2], 86400 M⁻¹ s⁻¹; in experiment [3], 8.62e+06 M⁻¹ s⁻¹; in [4], 161000 M⁻¹ s⁻¹ and 159000 M⁻¹ s⁻¹ and 166000 M⁻¹ s⁻¹.

B2: AB0192 TriNKET (other)
chain: EVQLVESGGGVVQPGGSLRLSCAASGFTFNAFGMHWVRQAPGKCLEWVAFISSGSTSIYYANTVKGRFTISRDNSKNTLYLQMNSLRAEDTAVYYCARDGYPTGGAMDYWGQGTSVTVSSGGGGSGGGGSGGGGSGGGGSDIQMTQSPSSLSASVGDRVTITCKASQDIYNYLSWFQQKPGKAPKPLIYRANILVSGVPSRFSGSGSGQDYTFTISSLQPEDIATYYCLQFDAFPFTFGCGTKLEIKGSDKTHTCPPCPAPELLGGPSVFLFPPKPKDTLMISRTPEVTCVVVDVSHEDPEVKFNWYVDGVEVHNAKTKPREEQYNSTYRVVSVLTVLHQDWLNGKEYKCKVSNKALPAPIEKTISKAKGQPREPRVYTLPPCRDELTKNQVSLTCLVKGFYPSDIAVEWESNGQPENNYKTTPPVLVSDGSFTLYSKLTVDKSRWQQGNVFSCSVMHEALHNHYTQKSLSLSPG
heavy: EVQLVESGGGLVKPGGSLRLSCAASGFTFSSYSMNWVRQAPGKGLEWVSSISSSSSYIYYADSVKGRFTISRDNAKNSLYLQMNSLRAEDTAVYYCARGAPIGAAAGWFDPWGQGTLVTVSSASTKGPSVFPLAPSSKSTSGGTAALGCLVKDYFPEPVTVSWNSGALTSGVHTFPAVLQSSGLYSLSSVVTVPSSSLGTQTYICNVNHKPSNTKVDKKVEPKSCDKTHTCPPCPAPELLGGPSVFLFPPKPKDTLMISRTPEVTCVVVDVSHEDPEVKFNWYVDGVEVHNAKTKPREEQYNSTYRVVSVLTVLHQDWLNGKEYKCKVSNKALPAPIEKTISKAKGQPREPQVCTLPPSRDELTENQVSLTCLVKGFYPSDIAVEWESNGQPENNYKTTPPVLDSDGSFFLYSWLTVDKSRWQQGNVFSCSVMHEALHNHYTQKSLSLSPG
light: DIQMTQSPSSVSASVGDRVTITCRASQGISSWLAWYQQKPGKAPKLLIYAASSLQSGVPSRFSGSGSGTDFTLTISSLQPEDFATYYCQQGVSFPRTFGGGTKVEIKRTVAAPSVFIFPPSDEQLKSGTASVVCLLNNFYPREAKVQWKVDNALQSGNSQESVTEQDSKDSTYSLSSTLTLSKADYEKHKVYACEVTHQGLSSPVTKSFNRGEC
notes: the condition stands under assay; also called AB0192 Lot AB0192-005
In the experiment with Human CLEC12A-His, B2 registered a Kd of 1.81 nM, a koff of 0.0014 s⁻¹ and a kon of 776000 M⁻¹ s⁻¹. Further, in the experiment with Human CD16a V158, binding was put at a Kd of 194 nM, the koff was determined as 0.0201 s⁻¹ and the kon was determined as 103000 M⁻¹ s⁻¹.

B3: F3'-1602 TriNKET (other)
chain: QLQLQESGPGLVKPSETLSLTCTVSGFSLTNYGLHWIRQPPGKCLEWIGVIWSGGKTDYNPSLKSRVTISKDTSKNQFSLKLSSVQAADTAVYYCAKYDYDDSLDYWGQGTLVTVSSGGGGSGGGGSGGGGSGGGGSDIQMTQSPSSLSASVGDRVTITCHASQNINFWLSWYQQKPGKAPKLLIYEASNLHTGVPSRFSGSGSGTRFTLTISSLQPEDIATYYCQQSHSYPLTFGCGTKLEIKGSDKTHTCPPCPAPELLGGPSVFLFPPKPKDTLMISRTPEVTCVVVDVSHEDPEVKFNWYVDGVEVHNAKTKPREEQYNSTYRVVSVLTVLHQDWLNGKEYKCKVSNKALPAPIEKTISKAKGQPREPRVYTLPPCRDELTKNQVSLTCLVKGFYPSDIAVEWESNGQPENNYKTTPPVLVSDGSFTLYSKLTVDKSRWQQGNVFSCSVMHEALHNHYTQKSLSLSPG
heavy: EVQLVESGGGLVKPGGSLRLSCAASGFTFSSYSMNWVRQAPGKGLEWVSSISSSSSYIYYADSVKGRFTISRDNAKNSLYLQMNSLRAEDTAVYYCARGAPIGAAAGWFDPWGQGTLVTVSSASTKGPSVFPLAPSSKSTSGGTAALGCLVKDYFPEPVTVSWNSGALTSGVHTFPAVLQSSGLYSLSSVVTVPSSSLGTQTYICNVNHKPSNTKVDKKVEPKSCDKTHTCPPCPAPELLGGPSVFLFPPKPKDTLMISRTPEVTCVVVDVSHEDPEVKFNWYVDGVEVHNAKTKPREEQYNSTYRVVSVLTVLHQDWLNGKEYKCKVSNKALPAPIEKTISKAKGQPREPQVCTLPPSRDELTENQVSLTCLVKGFYPSDIAVEWESNGQPENNYKTTPPVLDSDGSFFLYSWLTVDKSRWQQGNVFSCSVMHEALHNHYTQKSLSLSPG
light: DIQMTQSPSSVSASVGDRVTITCRASQGISSWLAWYQQKPGKAPKLLIYAASSLQSGVPSRFSGSGSGTDFTLTISSLQPEDFATYYCQQGVSFPRTFGGGTKVEIKRTVAAPSVFIFPPSDEQLKSGTASVVCLLNNFYPREAKVQWKVDNALQSGNSQESVTEQDSKDSTYSLSSTLTLSKADYEKHKVYACEVTHQGLSSPVTKSFNRGEC
notes: CLEC12A scFv-Fc, NKG2D A49MI Fab-Fc, human IgG1 Fc; also called AB0237
Regarding B3, the binding result with HER2 and with BCMA was “no binding (tested: 500 nM)” each time.
